Data set [1] has as its target Cas1 of the Synechocystis sp. PCC6803 type I-D CRISPR-Cas system, untagged (Synechocystis sp. PCC6803). Description: negative-stain electron microscopy.
Data set [2] has the same target. Description: crystal structure.
Data set [3] concerns the target Cas4 of the Synechocystis sp. PCC6803 type I-D CRISPR-Cas system, untagged (Synechocystis sp. PCC6803). The experiment in a line: SEC-MALS.
Data set [4] deals with Cas2 of the Synechocystis sp. PCC6803 type I-D CRISPR-Cas system, untagged (Synechocystis sp. PCC6803). Description: crystal structure.
Data set [5] addresses T1, Cas1 (type I-D);Cas2 (type I-D) (Synechocystis sp. PCC6803;Synechocystis …, UniProt Q6ZEI2;Q6ZEI1 1-325;1-94, |).
T1 sequence 1: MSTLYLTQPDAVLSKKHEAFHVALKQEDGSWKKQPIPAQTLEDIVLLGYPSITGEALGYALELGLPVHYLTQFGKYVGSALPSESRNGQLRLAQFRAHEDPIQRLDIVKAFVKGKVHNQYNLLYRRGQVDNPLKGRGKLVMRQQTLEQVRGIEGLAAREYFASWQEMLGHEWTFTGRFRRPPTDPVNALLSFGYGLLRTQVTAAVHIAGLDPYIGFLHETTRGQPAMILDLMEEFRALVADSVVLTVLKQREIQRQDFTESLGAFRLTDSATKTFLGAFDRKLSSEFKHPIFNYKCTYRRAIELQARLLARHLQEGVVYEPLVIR
T1 sequence 2: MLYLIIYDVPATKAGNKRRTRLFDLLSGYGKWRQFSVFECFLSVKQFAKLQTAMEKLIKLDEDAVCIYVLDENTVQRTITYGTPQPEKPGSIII
The experiment in a line: X-ray crystal structure.

The target of data set [6] is T1, Cas1 (type I-D);Cas2 (type I-D). The experiment in a line: X-ray crystal structure. This is another data set of the same source.
The next data set deals with T2, Cas1 (type I-D) (Synechocystis sp. PCC6803, UniProt Q6ZEI2 1-325).
T2 sequence: T1 sequence 1
Description: EMSA.

Data set [7] addresses T1, Cas1 (type I-D);Cas2 (type I-D). Description: EMSA.

Regarding “Cas1 of the Synechocystis sp. PCC6803 type I-D CRISPR-Cas system, untagged (natural protein)”, the stoichiometry N in data set [1] and in data set [2] was 2 each time. The molecule further came in with a stoichiometry N (Cas1 per Cas4) in data set [3] of 2. In data set [4], “Cas2 of the Synechocystis sp. PCC6803 type I-D CRISPR-Cas system, untagged (natural protein)” registered a stoichiometry N of 2.

B1: 22-7-7 double-forked prespacer (dsDNA)
DNA 1: TTTTTTTTGTGCCCCTGGCGGTCGCTTTCTTTTTTT
DNA 2: TTTTTTTGAAAGCGACCGCCAGGGGCACATTTTTTT
For the molecule B1, the binding result in data set [5] is “binds”.

B2: 26-5-5 double-forked prespacer (dsDNA)
DNA 1: TTTTTTTGTGCCCCTGGCGGTCGCTTTCAAGTTTTT
DNA 2: TTTTTCTTGAAAGCGACCGCCAGGGGCACAATTTTT
Turning to B2, the binding result in data set [6] was “binds”.

B3: dsDNA EMSA substrate (dsDNA)
DNA 1: TGTGCCCCTGGCGGTCGCTTTCTTTTT
DNA 2: AAAAAGAAAGCGACCGCCAGGGGCACA
For B3, the binding result (with Cas1 (type I-D); in data set [7]) was “binds” each time.

The values are drawn from article PMC7969031.
